Where a chain is given by its changes, count along the chain named.
T1: Recombinant Human BCMA (human, UniProt Q02223 1-54)
T1 construct: also called hBCMA; recombinant BCMA
T1 sequence: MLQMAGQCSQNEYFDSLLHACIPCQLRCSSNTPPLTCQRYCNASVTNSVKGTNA

B1: 5B5 (phage antibody clone) (scFv, V domains shown)
VH: EVQLLESGGGLVQPGGSLRLSCAASGFTFSGHYWSWVRQAPGKGLEWVSTVSGSGGDTFYADSVKGRFTISRDNSKNTLYLQMNSLRAEDTAVYYCARGHSVMDVWGQGTLVTVSS
VL: EIVLTQSPGTLSLSPGERATLSCRASQGIDSYVAWYQQKPGQAPRLLIYDASLRATGIPDRFSGSGSGTDFTLTISRLEPEDFAVYYCQQYNSWPITFGQGTKLEIK
B2: 5D5 (phage antibody clone) (scFv, V domains shown)
VH: EVQLLESGGGLVQPGGSLRLSCAASGFTFSDYGLSWVRQAPGKGLEWVSLIDSSGSSTFYADSVKGRFTISRDNSKNTLYLQMNSLRAEDTAVYYCAKEHGLFDSWGQGTLVTVSS
VL: B1 VL with R24K, G28D, S31D, Y32D, V33I, A34N, Y91S, N92L, S93R, W94T
B3: AB41 (phage antibody clone) (other)
VH: QVQLQQSGAEVIKPGASVKLSCKASGYTFSSYWMHWVRQAPGQGLEWIGEINPGNGHTNYNEKFKSRATLTGDTSTSTVYMELSSLRSEDTAVYYCARSFTTARAFAYWGQGTLVTVSS
VL: DIVMTQSPAFLSVTPGEKVTITCRASQTISDYLHWYQQKPDQAPKLLIKYASQSISGIPSRFSGSGSGTDFTFTISSLEAEDAATYYCQDGHSFPPTFGQGTKLEIK
notes: Clone as selected by phage ELISA
B4: 5A6 (phage antibody clone) (scFv, V domains shown)
VH: EVQLLESGGGLVQPGGSLRLSCAASGFTFSNYGVHWVRQAPGKGLEWVSYISYSGGTYYNPSLKSRFTISRDNSKNTLYLQMNSLRAEDTAVYYCARDSDDFGFDYWGQGTLVTVSS
VL: QSVLTQPPSASGTPGQRVTISCQGDSLRSYYVNWYQQLPGTAPKLLIYDHSKRPTGVPDRFSGSKSGTSASLAISGLRSEDEADYYCQSYDSSTVVFGGGTKLTVL

Legend:
Recombinant Human BCMA = target: T1, Recombinant Human BCMA; assay: single clone phage ELISA on coated recombinant BCMA
Description: Specifically, the phage pool obtained according to Example 1-2 was sequentially diluted, and cultured on a solid medium containing LB-tetracycline/cabenicillin to obtain single colonies. Each colony was cultured on a 96-deep well plate so that OD600 was from 0.5 to 0.7. 20 MOI of helper phage was added to each well, and reacted at 37° C. for 1 hour. Thereafter, kanamycin was added to each well and incubated overnight at 30° C. On the next day, the culture was centrifuged and the supernatant thereof was collected, and then, ELISA was performed to select BCMA-specific phages. Each well of the ELISA plate was coated with 100 ng of recombinant BCMA, and then incubated with PBS-B (3% BSA containing PBS) to prevent nonspecific binding. Thereafter, the plate was washed with PBS. The prepared single clone phage was added to each well and incubated at 37° C. for 1 hour, and the plate was washed three times with PBS-T. For detecting the bounded phages, horseradish peroxidase (HRP) conjugated anti-hemagglutinin (HA) antibody was added to each well. After washing step with PBS-T, tetramethylbenzidine (TMB, Sigma, T0440) was added. Clones, which are with an absorbance that is 0.5 or more at the wavelength of 450 nm and also the absorbance is at least 5 times greater than that of the control with anti-HA HRP alone, were selected. Four antibody clones (B58, 5B5, 5D5, and 5A6), which specifically bind to human BCMA, were selected.

[1] = target: T2, Recombinant Human 4-1BB protein (human, UniProt Q07011 24-186); assay: phage ELISA on 4-1BB antigen-coated plates
T2 construct: also called h4-1BB; 4-1BB antigen

Binder	binding result (Recombinant Human BCMA)	binding result [1]
B1	binds	–
B2	binds	–
B3	–	binds
B4	binds	–

Source: US20230051266A1 (ABL BIO, published 2023)
